From publication PMC10377887, “Individual Contributions of Amido Acid Residues Tyr122, Ile168, and Asp173 to the Activity and Substrate Specificity of Human DNA Dioxygenase ABH2”
Substitutions are numbered along the chain they refer to.

T1: ABH2 Y122A (human, UniProt Q6NS38 1-261, Y122A)
T1 sequence: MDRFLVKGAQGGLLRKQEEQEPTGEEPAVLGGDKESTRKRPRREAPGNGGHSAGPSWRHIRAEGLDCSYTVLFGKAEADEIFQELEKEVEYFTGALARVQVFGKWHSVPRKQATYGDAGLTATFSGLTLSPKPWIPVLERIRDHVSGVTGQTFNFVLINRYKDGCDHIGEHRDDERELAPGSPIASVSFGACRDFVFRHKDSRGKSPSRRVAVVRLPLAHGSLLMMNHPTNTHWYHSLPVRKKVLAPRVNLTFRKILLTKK

T2: ABH2 D173A (human, UniProt Q6NS38 1-261, D173A)
T2 sequence: T1 sequence with A122Y, D173A

T3: ABH2 I168A (human, UniProt Q6NS38 1-261, I168A)
T3 sequence: T1 sequence with A122Y, I168A

B1: m1A (dsDNA)
DNA 1: AGTTCAATGATCTTCAT
DNA 2: ATGAAGATCATTGAACT
modifications: N1-methyladenine at position 10 of strand 1
B2: m3C (dsDNA)
DNA 1: AGTTCAATGATCTTCAT
DNA 2: ATGAAGATCATTGAACT
modifications: N3-methylcytosine at position 12 of strand 1

Tests used:
Test in all cases: EMSA; 0.5 mM αKG, 10 mM Mg2+, 2 mM ascorbate; EMSA: 50 mM Tris-HCl pH 8.0, 50 mM KCl, 10 mM MgCl2, 0.5 mM αKG, 2 mM Na ascorbate; 1.2 µM DNA, 0.4-12.8 µM protein; 10 min 37 °C then 5 min on ice; 10% native
Conditions in all cases: protein: recombinant; tags: N-terminal His6; label: 5'-FAM on strand 1; blunt
ABH2 Y122A = molecular target: T1, ABH2 Y122A
ABH2 D173A = molecular target: T2, ABH2 D173A
ABH2 I168A = molecular target: T3, ABH2 I168A

Binder | Kd (ABH2 Y122A) | Kd (ABH2 D173A) | Kd (ABH2 I168A)
B1 | 2110 ± 80 nM | 2100 ± 90 nM | 2700 ± 400 nM
B2 | 2490 ± 60 nM | 3090 ± 70 nM | 4100 ± 100 nM
